{"source": "patent US20040086519A1", "biological_target": "P-selectin (pig)", "test": "cell-based or functional assay", "data": [{"substance": "soluble P-selectin glycoprotein ligand-1 (PSGL-1) chimera (rPSGL-Ig) (from UniProt Q14242 42-305) (Fc fusion)", "values": [{"measurement": "decrease in adhesion of 51Cr-platelets to deeply injured arterial segments 1 week following repeat angioplasty (pigs, in vivo)", "value": 85, "unit": "%"}, {"measurement": "decrease in adhesion of 111In-neutrophils to deeply injured arterial segments 1 week following repeat angioplasty (pigs, in vivo)", "value": 75, "unit": "%"}, {"measurement": "decrease in neutrophil adhesion at stented coronary sites 4 weeks after stenting (pigs, in vivo)", "value": 49, "unit": "%"}, {"measurement": "decrease in platelet adhesion at stented coronary sites 4 weeks after stenting (pigs, in vivo)", "value": 39, "unit": "%"}]}]}
